Patent US20230227565A1 (OSE IMMUNOTHERAPEUTICS, published 2023)

What was measured:
recombinant hCD64/FcγRI = molecular target: T1, recombinant hCD64/FcγRI (human, UniProt P12314 16-288); assay: ELISA, recombinant FcγR immobilized at 2 µg/ml, detection with peroxidase-labeled anti-human IgG
T1 construct: Bought recombinant protein, immobilized on plastic at 2 µg/ml

[1] = molecular target: T2, recombinant hCD16a/FcγRIIIa (human, UniProt P08637 17-208); assay: as above
T2 construct: Bought recombinant protein, immobilized on plastic at 2 µg/ml

[2] = molecular target: T3, recombinant hCD32a/FcγRIIa (human, UniProt P12318 36-218); assay: as above
T3 construct: Bought recombinant protein, immobilized on plastic at 2 µg/ml
T3 sequence (looked up): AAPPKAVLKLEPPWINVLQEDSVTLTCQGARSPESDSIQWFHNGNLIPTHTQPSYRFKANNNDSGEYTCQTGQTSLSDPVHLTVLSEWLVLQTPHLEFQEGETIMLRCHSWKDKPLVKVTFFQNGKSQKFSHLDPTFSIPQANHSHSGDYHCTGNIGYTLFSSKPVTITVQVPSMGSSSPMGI

[3] = molecular target: T4, human CD127 (Interleukin-7 receptor subunit alpha) (human, UniProt P16871 21-459); assay: flow cytometry on ALL cell lines, 10 ug/mL antibody, fold change of PE geometric mean against isotype control
T4 construct: Endogenous CD127 on human ALL cell lines (HPB-ALL, DND41, 697, NALM6, REH) and on patient cells; no signal peptide limits are stated; also called IL7R-a; IL-7R
T4 sequence: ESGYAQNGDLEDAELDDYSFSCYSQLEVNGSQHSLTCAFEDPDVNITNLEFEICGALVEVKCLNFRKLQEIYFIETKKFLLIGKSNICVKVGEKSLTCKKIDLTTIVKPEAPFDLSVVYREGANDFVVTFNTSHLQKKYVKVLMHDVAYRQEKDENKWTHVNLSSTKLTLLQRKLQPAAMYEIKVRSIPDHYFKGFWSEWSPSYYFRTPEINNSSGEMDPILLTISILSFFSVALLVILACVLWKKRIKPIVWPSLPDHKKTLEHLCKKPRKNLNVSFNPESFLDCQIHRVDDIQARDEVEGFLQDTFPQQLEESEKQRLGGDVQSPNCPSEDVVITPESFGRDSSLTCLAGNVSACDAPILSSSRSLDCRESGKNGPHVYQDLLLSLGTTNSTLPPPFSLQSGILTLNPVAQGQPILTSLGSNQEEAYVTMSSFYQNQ

T1 sequence (P12314 16-288 limits assumed): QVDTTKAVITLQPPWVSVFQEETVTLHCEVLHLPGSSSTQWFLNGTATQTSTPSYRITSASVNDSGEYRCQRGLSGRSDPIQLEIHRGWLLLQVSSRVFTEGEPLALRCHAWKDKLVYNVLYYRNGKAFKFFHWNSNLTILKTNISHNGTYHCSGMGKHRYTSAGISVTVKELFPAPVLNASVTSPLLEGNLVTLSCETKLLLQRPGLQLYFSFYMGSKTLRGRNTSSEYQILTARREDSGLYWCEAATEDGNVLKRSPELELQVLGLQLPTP
T2 sequence (P08637 17-208 limits assumed): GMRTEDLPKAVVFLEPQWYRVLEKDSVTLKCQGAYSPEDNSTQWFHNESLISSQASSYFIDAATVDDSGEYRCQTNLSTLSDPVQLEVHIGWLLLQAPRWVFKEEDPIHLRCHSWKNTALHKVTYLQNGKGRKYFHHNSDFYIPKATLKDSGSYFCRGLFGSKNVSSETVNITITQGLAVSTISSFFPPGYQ

B1: N13B2-hVL6 (antibody, human IgG4 S228P, kappa)
heavy: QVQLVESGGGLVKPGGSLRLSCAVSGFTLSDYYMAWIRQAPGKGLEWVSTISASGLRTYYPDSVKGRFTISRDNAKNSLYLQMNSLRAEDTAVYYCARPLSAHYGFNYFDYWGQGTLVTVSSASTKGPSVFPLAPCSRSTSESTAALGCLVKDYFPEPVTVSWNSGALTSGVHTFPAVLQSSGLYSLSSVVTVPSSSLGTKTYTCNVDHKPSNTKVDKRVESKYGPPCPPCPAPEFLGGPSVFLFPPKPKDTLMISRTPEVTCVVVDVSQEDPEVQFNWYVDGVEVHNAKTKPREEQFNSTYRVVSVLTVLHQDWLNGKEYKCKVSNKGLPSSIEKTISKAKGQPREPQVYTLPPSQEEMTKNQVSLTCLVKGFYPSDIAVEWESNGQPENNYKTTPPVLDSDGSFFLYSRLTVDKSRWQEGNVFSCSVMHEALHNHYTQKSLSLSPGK
light: DIQMTQSPSSLSASVGDRVTITCRTSEDIYQGLAWYQQKPGKAPKLLLYSANTLHIGVPSRFSGSGSGTDYTLTISSLQPEDFATYYCQQYYDYPLAFGGGTKVEIKRTVAAPSVFIFPPSDEQLKSGTASVVCLLNNFYPREAKVQWKVDNALQSGNSQESVTEQDSKDSTYSLSSTLTLSKADYEKHKVYACEVTHQGLSSPVTKSFNRGEC
notes: Humanized antagonist anti-CD127 IgG4 antibody; also called NB13B2-hVL6; N13B6-hVL6; copies: 2 + 2
binding result (recombinant hCD64/FcγRI): no binding | binding result [1]: no binding | binding result [2]: no binding | binding result [3]: binds
